These results are taken from PMC4483278.

Bounds are passed on as bounds.

For this assay, the target named is Bax (human (endogenous in U-2 OS and Sa OS)) (UniProt Q07812). Description: co-IP.
Bax (human (endogenous in U-2 OS and Sa OS)), sequence (Q07812 whole entry): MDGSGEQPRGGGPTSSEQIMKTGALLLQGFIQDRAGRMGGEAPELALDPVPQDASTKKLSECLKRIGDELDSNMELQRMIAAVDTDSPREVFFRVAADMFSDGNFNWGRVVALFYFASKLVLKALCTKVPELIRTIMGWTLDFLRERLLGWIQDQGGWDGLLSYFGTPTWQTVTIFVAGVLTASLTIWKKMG

Ku70, sequence (P12956 whole entry): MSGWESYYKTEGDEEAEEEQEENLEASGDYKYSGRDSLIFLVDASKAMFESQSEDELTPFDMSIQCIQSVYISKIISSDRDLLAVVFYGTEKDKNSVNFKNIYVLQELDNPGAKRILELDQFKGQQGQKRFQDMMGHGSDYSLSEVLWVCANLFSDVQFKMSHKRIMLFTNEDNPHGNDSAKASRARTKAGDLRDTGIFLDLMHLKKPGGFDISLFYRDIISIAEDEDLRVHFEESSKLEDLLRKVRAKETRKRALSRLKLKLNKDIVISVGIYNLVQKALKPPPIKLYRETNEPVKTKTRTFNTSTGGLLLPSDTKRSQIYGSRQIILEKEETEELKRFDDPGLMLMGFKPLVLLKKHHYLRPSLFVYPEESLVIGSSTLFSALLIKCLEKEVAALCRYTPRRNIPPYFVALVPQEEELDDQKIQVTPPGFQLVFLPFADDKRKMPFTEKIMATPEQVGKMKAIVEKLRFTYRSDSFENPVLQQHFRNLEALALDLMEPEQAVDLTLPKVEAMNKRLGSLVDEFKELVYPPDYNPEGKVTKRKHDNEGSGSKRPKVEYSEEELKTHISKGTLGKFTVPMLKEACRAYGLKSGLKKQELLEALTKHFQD

Regarding “Ku70 (from UniProt P12956 1-609) (natural protein)”, the percent of Ku70 remaining bound to Bax after sCLU depletion is less than 25%.
